Results published in article PMC7763485, “Quantifying the Monomer–Dimer Equilibrium of Tubulin with Mass Photometry” (Journal of Molecular Biology, 2020).

Target: β-tubulin (porcine, UniProt P02554 1-445)
Assay: mass photometry; label-free, in free solution; tubulin diluted in BRB80 buffer to 1 to 60 nM total monomer, no added GTP; 20 min equilibration after dilution (also measured immediately after dilution); Kd computed from counts of monomers and dimers in each single distribution; heterodimer to monomers
Conditions: both partners purified

Chain of β-tubulin (P02554 whole entry): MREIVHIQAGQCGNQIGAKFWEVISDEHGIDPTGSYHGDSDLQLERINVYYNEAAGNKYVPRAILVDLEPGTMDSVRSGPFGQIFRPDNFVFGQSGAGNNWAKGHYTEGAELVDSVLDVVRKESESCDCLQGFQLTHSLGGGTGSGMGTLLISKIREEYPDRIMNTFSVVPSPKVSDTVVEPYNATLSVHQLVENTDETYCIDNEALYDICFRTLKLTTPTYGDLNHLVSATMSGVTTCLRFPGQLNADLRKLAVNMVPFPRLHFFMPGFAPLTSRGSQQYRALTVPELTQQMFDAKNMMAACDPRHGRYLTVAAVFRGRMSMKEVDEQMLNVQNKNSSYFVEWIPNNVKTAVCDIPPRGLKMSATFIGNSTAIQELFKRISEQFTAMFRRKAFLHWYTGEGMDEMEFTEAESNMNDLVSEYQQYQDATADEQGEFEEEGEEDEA

- dimer:monomer ratio at 60 nM total tubulin: ~2
B1: α-tubulin (natural protein)
chain: MRECISIHVGQAGVQIGNACWELYCLEHGIQPDGQMPSDKTIGGGDDSFNTFFSETGAGKHVPRAVFVDLEPTVIDEVRTGTYRQLFHPEQLITGKEDAANNYARGHYTIGKEIIDLVLDRIRKLADQCTGLQGFSVFHSFGGGTGSGFTSLLMERLSVDYGKKSKLEFSIYPAPQVSTAVVEPYNSILTTHTTLEHSDCAFMVDNEAIYDICRRNLDIERPTYTNLNRLIGQIVSSITASLRFDGALNVDLTEFQTNLVPYPRAHFPLATYAPVISAEKAYHEQLSVAEITNACFEPANQMVKCDPRHGKYMACCLLYRGDVVPKDVNAAIATIKTKRTIQFVDWCPTGFKVGINYEPPTVVPGGDLAKVQRAVCMLSNTTAIAEAWARLDHKFDLMYAKRAFVHWYVGEGMEEGEFSEAREDMAALEKDYEEVGVDSVEGEGEEEGEEY
modifications: Brain-purified isotype mixture, isotype not named; TUBA1A taken as representative by convention. Native brain PTMs are likely but not specified. GTP at the non-exchangeable site as purified; the …
